Laboratory results taken from the supplement of paper PMC7125110.
± gives the standard error. This sample holds only a part of the variants without activity.

B1: glmS ribozyme (parent)
chain: AUAAAAGCGCCAGAACUACAGAAAUGUAGUUGACGAGGAGGAGGUUUAUCGAAUUUUCGGCGGAUGCCUCCAAA

Legend:
Settings in all cases: with glucosamine-6-phosphate
glucosamine-6-phosphate [1] = variants of: B1; test: self-cleavage kobs at 40 uM GlcN6P; higher = faster cleavage; RNA array
How it was run: (§1)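 Tracking of barcoded ribozyme variants used a hybridised Cy3 probe at 37 °C, after in situ transcription by E. coli RNA polymerase on sequenced MiSeq chips. The flowed solution held 40 μM to 10 mM glucosamine-6-phosphate in HEPES/KCl/Mg(OAc)2 buffer, and imaging ran over ~14 h. kobs was taken from exponential decay fits of normalised per-tile medians, and kcat and KM from weighted Michaelis–Menten fits.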

glucosamine-6-phosphate [2] = variants of: B1; test: self-cleavage kobs at 10000 uM GlcN6P; higher = faster cleavage; RNA array
How it was run: as §1

glucosamine-6-phosphate [3] = variants of: B1; test: self-cleavage kobs at 640 uM GlcN6P; higher = faster cleavage; RNA array
How it was run: as §1

glucosamine-6-phosphate [4] = variants of: B1; test: self-cleavage kobs at 2500 uM GlcN6P; higher = faster cleavage; RNA array
How it was run: as §1

glucosamine-6-phosphate [5] = variants of: B1; test: self-cleavage kobs at 160 uM GlcN6P; higher = faster cleavage; RNA array
How it was run: as §1

Variant	self-cleavage kobs at 40 uM GlcN6P (glucosamine-6-phosphate [1]) [s⁻¹]	self-cleavage kobs at 10000 uM GlcN6P (glucosamine-6-phosphate [2]) [s⁻¹]	self-cleavage kobs at 640 uM GlcN6P (glucosamine-6-phosphate [3]) [s⁻¹]	self-cleavage kobs at 2500 uM GlcN6P (glucosamine-6-phosphate [4]) [s⁻¹]	self-cleavage kobs at 160 uM GlcN6P (glucosamine-6-phosphate [5]) [s⁻¹]
G43A G44U U55C	< 1e-05	< 1e-05			
G43A G62C U65C C68G	< 1e-05				
G41U A42U C50G	< 1e-05		< 1e-05		
G44C U54A U57A U65G U69G	< 1e-05	< 1e-05			
G41C C50U	< 1e-05	< 1e-05	< 1e-05	< 1e-05	
G41C C50G	< 1e-05	< 1e-05	< 1e-05	< 1e-05	< 1e-05
A42U G62U	< 1e-05		< 1e-05	< 1e-05	< 1e-05
G44A G51A U65G C67G	< 1e-05	< 1e-05	< 1e-05	< 1e-05	< 1e-05
U46A U49C	< 1e-05	< 1e-05	< 1e-05	< 1e-05	< 1e-05
A42C G51A	< 1e-05	< 1e-05		< 1e-05	
U46A G51C	< 1e-05	< 1e-05	< 1e-05	< 1e-05	
A42U U57C	< 1e-05		< 1e-05		< 1e-05
A42U C71G	< 1e-05	3.51e-05 ± 1e-05			< 1e-05
A42U C68A	< 1e-05	< 1e-05	< 1e-05		< 1e-05
G44U C61G	< 1e-05	< 1e-05	< 1e-05	< 1e-05	< 1e-05
U45G G63U A64C	< 1e-05		< 1e-05		
U46G C58U	< 1e-05				
G41C G43U	< 1e-05	< 1e-05	< 1e-05	< 1e-05	< 1e-05
G41A U69C	< 1e-05				< 1e-05
A42G C50U G63U C71G	< 1e-05	< 1e-05			
G43U C50G U54G A64U C71U	7.77e-05 ± 3e-05	0.00156 ± 0.00062			
G44U C50U C67G	< 1e-05				

Variant	self-cleavage kobs at 40 uM GlcN6P (glucosamine-6-phosphate [1]) [s⁻¹]	self-cleavage kobs at 10000 uM GlcN6P (glucosamine-6-phosphate [2]) [s⁻¹]	self-cleavage kobs at 640 uM GlcN6P (glucosamine-6-phosphate [3]) [s⁻¹]	self-cleavage kobs at 2500 uM GlcN6P (glucosamine-6-phosphate [4]) [s⁻¹]	self-cleavage kobs at 160 uM GlcN6P (glucosamine-6-phosphate [5]) [s⁻¹]
A42C C61U C71A	< 1e-05				
A42U G63U	< 1e-05	< 1e-05		< 1e-05	< 1e-05
G41U G63U	< 1e-05	< 1e-05	< 1e-05	< 1e-05	< 1e-05
A42C G43U A48G G62C C67A C70G	< 1e-05		< 1e-05	< 1e-05	
G44C G51U	< 1e-05	< 1e-05		< 1e-05	
U45G G62A	< 1e-05	< 1e-05	< 1e-05	< 1e-05	
G41U G62A G63U	< 1e-05	< 1e-05			
G41C	1.75e-05 ± 1.7e-06	0.00255 ± 0.00067	0.000131 ± 3.6e-06	0.000529 ± 4.7e-05	4.15e-05 ± 1.9e-06
G43U C61U	< 1e-05	< 1e-05	< 1e-05	< 1e-05	< 1e-05
G43U C61A	< 1e-05	< 1e-05	< 1e-05	< 1e-05	< 1e-05
G43U C61G	< 1e-05	< 1e-05	< 1e-05	< 1e-05	
U46C G63U C70A	< 1e-05				
A42U U46G C50U C70U	< 1e-05	< 1e-05			
A42G U49G C50U U55G G60A	< 1e-05	< 1e-05			
G44C C68G	< 1e-05	< 1e-05	< 1e-05	< 1e-05	< 1e-05
A42G G44A A48G U57C C67A	< 1e-05				
G43C U47A	< 1e-05		< 1e-05	< 1e-05	
A42G G43U	< 1e-05		< 1e-05	< 1e-05	< 1e-05
U46G A48C	< 1e-05		< 1e-05		< 1e-05
U46G U57A	< 1e-05	5.59e-05 ± 7.8e-06			
G43A G63U	< 1e-05		< 1e-05		< 1e-05
G44A A48U	< 1e-05		< 1e-05		< 1e-05

Variant	self-cleavage kobs at 40 uM GlcN6P (glucosamine-6-phosphate [1]) [s⁻¹]	self-cleavage kobs at 10000 uM GlcN6P (glucosamine-6-phosphate [2]) [s⁻¹]	self-cleavage kobs at 640 uM GlcN6P (glucosamine-6-phosphate [3]) [s⁻¹]	self-cleavage kobs at 2500 uM GlcN6P (glucosamine-6-phosphate [4]) [s⁻¹]	self-cleavage kobs at 160 uM GlcN6P (glucosamine-6-phosphate [5]) [s⁻¹]
U46G G51U U57A C70G	4.37e-05 ± 1.9e-05				
A42U C58A	< 1e-05		< 1e-05		< 1e-05
G44C G59C	< 1e-05	< 1e-05	< 1e-05	< 1e-05	
G41A U49G C67U C71U	< 1e-05	< 1e-05			
A42C G59C	< 1e-05	< 1e-05	< 1e-05	< 1e-05	< 1e-05
G43U A64C	< 1e-05	< 1e-05	< 1e-05		< 1e-05
G44U G59U U65G	< 1e-05			< 1e-05	
A42U U69A	0.00293 ± 0.00038	0.101 ± 0.036	0.0164 ± 0.0051	0.0275 ± 0.012	0.00511 ± 0.0011
G41U U45A	8.05e-05 ± 2.1e-05	0.000309 ± 5.5e-05			
G44C A48U	< 1e-05	< 1e-05	< 1e-05	< 1e-05	< 1e-05
A42C G63A C67G	< 1e-05				
A42U U49G C68G	< 1e-05				
U45C G60U	< 1e-05	< 1e-05	< 1e-05		< 1e-05
A42G C68U	0.000563 ± 7.3e-05	0.0168 ± 0.0034	0.00237 ± 0.00041		0.000735 ± 0.00016
U46A U69A	< 1e-05	9.26e-05 ± 1.9e-05	5.02e-05 ± 2e-05	0.00022 ± 6.2e-05	
A42U U46C	< 1e-05		< 1e-05		< 1e-05
G41U C61A	< 1e-05	< 1e-05	< 1e-05		< 1e-05
A42G G51A A52U	< 1e-05			< 1e-05	
G44U A52C	< 1e-05	< 1e-05	< 1e-05	< 1e-05	< 1e-05
G41C U49A	< 1e-05		< 1e-05	< 1e-05	< 1e-05
A42C A52U C61U	< 1e-05		< 1e-05		
U46C C61G	< 1e-05		< 1e-05	< 1e-05	< 1e-05

Variant	self-cleavage kobs at 40 uM GlcN6P (glucosamine-6-phosphate [1]) [s⁻¹]	self-cleavage kobs at 10000 uM GlcN6P (glucosamine-6-phosphate [2]) [s⁻¹]	self-cleavage kobs at 640 uM GlcN6P (glucosamine-6-phosphate [3]) [s⁻¹]	self-cleavage kobs at 2500 uM GlcN6P (glucosamine-6-phosphate [4]) [s⁻¹]	self-cleavage kobs at 160 uM GlcN6P (glucosamine-6-phosphate [5]) [s⁻¹]
G41C G66A U69C	< 1e-05				< 1e-05
G41A U57G	< 1e-05	< 1e-05			
G41A U57C	< 1e-05		< 1e-05		< 1e-05
G44U U45C	< 1e-05				
U45A U55C	0.000654 ± 0.00021	0.024 ± 0.0085	0.00526 ± 0.0015	0.00714 ± 0.0029	
G41U G59U	< 1e-05		< 1e-05		< 1e-05
A42U G66C	< 1e-05				< 1e-05
A42G U55G G59C	< 1e-05			< 1e-05	
U45G U46G C61A	< 1e-05	< 1e-05			
U46C G60A	< 1e-05		< 1e-05		< 1e-05
G41U C58G	< 1e-05	< 1e-05	< 1e-05	< 1e-05	< 1e-05
G44U C50G	< 1e-05	< 1e-05			
A42U G62U C71G	< 1e-05	< 1e-05			
G43C U57A	< 1e-05	< 1e-05	< 1e-05		
G43U G59A G60C	< 1e-05	< 1e-05		< 1e-05	
U45A U54G	0.00129 ± 0.00023	0.0501 ± 0.011	0.0132 ± 0.0028	0.0113 ± 0.0021	0.00383 ± 0.00079
A42C A64G	< 1e-05		< 1e-05		< 1e-05
U47A A52C	< 1e-05				
A42G G43U C70U	< 1e-05	< 1e-05			
G43A U69G	< 1e-05	< 1e-05	< 1e-05		
G43U C50U U55G	< 1e-05		< 1e-05	< 1e-05	
G43U A48C	< 1e-05	< 1e-05	< 1e-05	< 1e-05	< 1e-05
